Reference: article PMC2914181 (Biochemical and biophysical research communications, 2009)

Biological target: the molecule itself
Assay: SEC

B1: Campylobacter jejuni β-hydroxyacyl-ACP dehydratase (FabZ) (enzyme, Campylobacter jejuni strain 81-176, UniProt Q9PIM2 1-146, looked up)
chain: MIDVMQIQEILPHRYPFLLVDKITELKVKEVVLGYKNISISDHVFMGHFPGHPIYPGVLILEGMAQTGGVLAFESMEDKVDPKSKVVYFTGIDGAKFRNPVRPGDRLDYEMSVVKNRGNMWIFKGQAFVDGNLVAEAELKAMIVDK
  stoichiometry N: 6
